One assay addresses T1, human BACE2 (Homo sapiens, UniProt Q9Y5Z0).
T1 construct: the extracellular domain of human BACE2 enzyme (5 nM)
T1 sequence (Q9Y5Z0 63-473 limits assumed): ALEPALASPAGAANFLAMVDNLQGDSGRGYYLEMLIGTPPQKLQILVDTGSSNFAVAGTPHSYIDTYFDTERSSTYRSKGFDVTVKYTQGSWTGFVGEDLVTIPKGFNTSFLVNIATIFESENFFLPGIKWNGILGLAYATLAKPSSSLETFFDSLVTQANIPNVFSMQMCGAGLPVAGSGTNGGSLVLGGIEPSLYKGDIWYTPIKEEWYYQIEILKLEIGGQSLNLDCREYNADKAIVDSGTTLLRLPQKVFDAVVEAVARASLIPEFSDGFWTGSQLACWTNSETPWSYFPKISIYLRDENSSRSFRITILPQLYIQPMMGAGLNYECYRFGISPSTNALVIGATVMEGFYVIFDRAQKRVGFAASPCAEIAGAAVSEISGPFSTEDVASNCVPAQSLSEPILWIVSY
Put plainly: MCE assay, BACE2. Type of assay: biochemical. The protocol:
The MCE assay reactions were carried out in a final volume of 20 μL per well in a 384-well microplate. A standard enzymatic reaction, initiated by the addition of 10 μL 2× substrate to 5 μL of 4× enzyme and […] of 4× compound, containing 12 nM human BACE1 extracellular domain, […] amyloid precursor protein beta secretase active site peptide (FAM-[…]-CONH2 (SEQ ID NO:55)), 50 mM NaOAc pH 4.4 and 0.1% CHAPS. The same reaction conditions were used for the extracellular domain of human BACE2 enzyme (5 nM) and the extracellular domain of Cathepsin D (6 nM, Calbiochem®). After incubation for 60 minutes at ambient temperature, the product and substrate in each reaction were separated using a 12-sipper microfluidic chip analyzed on an LC3000® (both, Caliper Life Sciences). The separation of product and substrate was optimized by choosing voltages and pressure using the manufacturer's optimization software. The separate buffer contained 100 mM HEPES pH 7.2, 0.015% Brij-35, 0.1% coating reagent #3, 10 mM EDTA and 5% DMSO. The separation conditions used a downstream voltage of −500V, an upstream voltage of −2250V and a screening pressure of −1.2 psi. The product and substrate fluorescence was excited at a wavelength of 488 nm and detected at a wavelength of 530 nm. Substrate conversion was calculated from the electropherogram using HTS Well Analyzer software (Caliper Life Sciences).

The target in another assay is Guinea pig BACE1 (Cavia porcellus, UniProt Q1KLR6). Briefly: BIAcore SPR binding kinetics, guinea pig BACE1. The conditions noted are these: guinea pig BACE1, pH 7.0. A general note: In SPR one partner is held on a chip, and binding of the other changes the refractive index at the surface.
Sequence of Guinea pig BACE1 (Q1KLR6 46-473): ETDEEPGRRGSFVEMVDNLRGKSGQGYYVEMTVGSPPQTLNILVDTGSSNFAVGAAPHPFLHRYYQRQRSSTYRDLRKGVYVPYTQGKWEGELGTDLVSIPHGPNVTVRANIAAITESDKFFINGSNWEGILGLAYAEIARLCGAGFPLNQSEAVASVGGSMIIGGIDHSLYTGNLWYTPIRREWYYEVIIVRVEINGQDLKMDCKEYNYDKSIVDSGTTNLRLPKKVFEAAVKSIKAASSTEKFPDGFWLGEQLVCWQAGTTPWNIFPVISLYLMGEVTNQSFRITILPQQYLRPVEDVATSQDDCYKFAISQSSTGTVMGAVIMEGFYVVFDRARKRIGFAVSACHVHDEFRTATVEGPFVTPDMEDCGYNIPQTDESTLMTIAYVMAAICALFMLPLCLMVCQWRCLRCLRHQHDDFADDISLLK
In assay [1] the test system is 293-HEK cells stably expressing wild-type human amyloid precursor protein. Put plainly: Aβ1-40 production in 293-HEK cells expressing APP. It is filed as cell-based. The protocol:
To determine whether the observed in vitro inhibitory action of the anti-BACE1 antibodies on APP processing was also present in a cellular context, […]. The ability of the antibodies to inhibit Aβ1-40 production in 293-HEK cells stably expressing wild-type human amyloid precursor protein was assessed as follows. 293-APP^WT cells were seeded overnight at a density of 3×10^4 cells/well in a 96-well plate. […] of fresh media (DMEM+10% FBS) containing an anti-BACE1 antibody or a control IgG1 antibody was incubated with the cells for 24 hours at 37° C. A tricyclic small molecule BACE1 inhibitor (BACE1 SMI) was also used as a control ((Compound 8e—Charrier, N. et al. J. Med. Chem. 51:3313-3317 (2008)). The cellular media was harvested and assayed for the presence of Aβ1-40 using a Aβ1-40 HTRF® assay (CisBio) according to the manufacturer's instructions. Aβ1-40 values were normalized for cell viability, as determined using the CellTiter-Glo Luminescent Cell Viability Assay (Promega). Experiments were performed at least three times, and each point in each experiment was repeated in duplicate. Data was plotted using a four-parameter non-linear regression curve-fitting program (Kaleidagraph, Synergy Software).

In assay [2] the test system is E13.5 dorsal root ganglia neurons. Put plainly: Aβ40 production in DRG neurons. It is filed as cell-based, mouse. The conditions noted are these: highest concentrations. As for the experimental part:
Similar studies were also performed in dorsal root ganglia, cortical neurons and hippocampal neurons isolated from mice. Briefly, dissociated neuronal cultures were prepared from E13.5 dorsal root ganglia (DRG), E16.5 cortical neurons and E16.5 hippocampal neurons. Neurons were grown for five days in vitro. Fresh media containing YW412.8.31 anti-BACE antibody or control IgG1 was incubated with the neurons for 24 hours. Media was harvested and assayed for the presence of Aβ40 using the MSD® Rodent/Human (4G8) A1340 Ultrasensitive kit according to the Manufacturer's instructions. Aβ40 values were normalized for cell viability, as determined using the CellTiter-Glo Luminescent Cell Viability Assay (Promega). The experiment was performed at least three times, and each point was repeated in duplicate. Data was plotted using a four-parameter non-linear regression curve-fitting program (Kaleidagraph, Synergy Software).

The test system of assay [3] is Aβ1-40 in Cynomolgus monkeys. Briefly: Cynomolgus monkeys, single IV dose, Aβ1-40 in plasma and CSF. It is filed as in vivo, Cynomolgus monkey. To be noted: 30 mg/kg IV. The protocol: Cynomolgus monkeys were dosed with control IgG or YW412.8.31 anti-BACE1 antibody (30 mg/kg) by IV delivery. Plasma and CSF were sampled up to 7 days prior to dosing to set mean baseline Aβ1-40 levels in each in individual animal, and then at various times after dosing. Total anti-BACE1 or control antibody concentrations in monkey serum and CSF samples were measured using monkey-adsorbed goat anti-human IgG polyclonal antibody (Bethyl, Montgomery, Tex.) as both coat and detection (FIG. 20). Free anti-BACE1 antibody concentrations in monkeys were determined using BACE1 ECD as coat and the monkey-adsorbed goat anti-human IgG antibody (Bethyl) for detection.
Aβ1-40 levels in plasma and CSF from Cynomolgus monkeys tested was also determined. Briefly, the concentrations of total cyno Aβ1-40 in plasma were determined using MSD MA6000 Human (6E10) Abeta Kit (Cat#K111BVE-2, Meso Scale Diagnostics) according to the Manufacturer's instructions. The capture antibody, specific for the C terminus of Aβ1-40, was pre-coated on the plates, and Sulfo-Tag anti-Aβ monoclonal antibody 6E10 was used for detection. The assay had lower limit of quantification values of 49.4 pg/ml in plasma. The concentrations of total cyno Aβ1-40 in CSF were determined using a sandwich ELISA. […]

This is an account of results in patent US9879094B2, “Nucleic acid molecules encoding for BACE1 antibodies” (Genentech, Inc., priority 2010, dated 2018).

B1: YW412.8.31: affinity matured form of YW412.8 anti-BACE1 antibody (antibody, V domains shown)
VH: EVQLVESGGGLVQPGGSLRLSCAASGFTFLGYGIHWVRQAPGKGLEWVGWISPAGGSTDYADSVKGRFTISADTSKNTAYLQMNSLRAEDTAVYYCARGPFSPWVMDYWGQGTLVTVSS
VL: DIQMTQSPSSLSASVGDRVTITCRASQDVSTAVAWYQQKPGKAPKLLIYSASFLYSGVPSRFSGSGSGTDFTLTISSLQPEDFATYYCQQFPTYLPTFGQGTKVEIK
Regarding B1, the “inhibition of human BACE2” value in the assay with human BACE2 is “did not inhibit”. For the same molecule, in the assay with Guinea pig BACE1, the KOFF was 2.7 × 10^−4 S^−1 and the KON is listed as 1.0 × 10^5 M^−1S^−1. Moreover, the “inhibition of Aβ1-40 production” value in assay [1] (24 hours, compared to non-BACE1 IgG (Xolair)) is “inhibited”. Further, the “maximum reduction of Aβ1-40 production” value in assay [1] (APP-expressing 293 cells) is listed as ~90%. In assay [2], the “reduction in Aβ40 production” value is ~50%. Also, the “reduction of CSF Aβ1-40” value in assay [3] (1 and 3 days following dosing) is recorded as “up to 50%”. The “reduction of plasma Aβ1-40 from baseline” value in assay [3] (sustained over 7 days) was ~50%.
